The data set is described as follows: yeast display, Sf9 membrane polyspecificity reagent, FACS + sequencing; frameworks hold sequencing errors. The method in brief:
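Galactose-induced (36–48 hours) yeast carrying a synthetic nanobody display library were exposed to 10% biotinylated, detergent-solubilized Sf9 membrane reagent at 4 °C for 1 hour. FACS followed streptavidin microbead enrichment, using low and high (top ~1%) gates for expression (anti-HA) and reagent binding (streptavidin). Colony PCR, MiSeq 2 × 250 sequencing and CDR-length filtering followed. Labels for polyreactivity reflect the gate of origin.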
As to “QVQLVESGGGLVQAGGSLRLSCAASGIIFFTYAMGWYRQATGKERELVAAISSGGSTTYADSVKGRFTISRDNAKNTVYLQMNSLKPEDTAVYYCAAGTQAHDYVVRPIDMDYWGQGTQVTVSS”, the “polyreactivity (PSR sort gate)” value is recorded as “low polyreactivity”.
For the sequence “QVQLVESGGGLVQAGGSLRLSCAASGIIFGEYAMGWYRQAPGKERELVAAISGSGSRTYYADSVKGRFTISRDNAKNTVYLQMNSLKPEDTAVYYCAVKGGGTRYGYWGQGTQVTVSS”, the “polyreactivity (PSR sort gate)” value is “high polyreactivity”.
Next, “QVQLVESGGGLVQAGGSLRLSCAASGIIFGEYAMGWYRQAPGKERELVAAISQSGGTYYADSVKGRFTISRDNAKNTVYLQMNSLKPEDTAVYYCNADYWAYISRVRYDYWGQGTQVTVSS”: “low polyreactivity”.
Regarding “QVQLVESGGGLVQAGGSLRLSCAASGIIFGGYDMGWYRQAPGKERELVAAISWSGGSTYYADSVKGRFTISRDNAKNTVYLQMNSLKPEDTAVYYCAAAYYAPTRDYHYWGQGTQVTVSS”, the “polyreactivity (PSR sort gate)” value is recorded as “low polyreactivity”.
With “QVQLVESGGGLVQAGGSLRLSCAASGIIFGGYTMGWYRQAPGKERELVAAISSTGASTYYADSVEGRFTISRDNAKNTVYLQMNSLKPEDTAVYYCNAKRAPWGTLYNYWGQGTQVTVSS”, the “polyreactivity (PSR sort gate)” value is “high polyreactivity”.
For the sequence “QVQLVESGGGLVQAGGSLRLSCAASGIIFGHYAMGWYRQAPGKERELVAAIRSSGGTTYYADSVKGRFTISRDNAKNTVYLQMNSLKPEDTAVYYCAKRGVHLYHDYYWGQGTQVTVSS”, the “polyreactivity (PSR sort gate)” value is recorded as “low polyreactivity”.
Take “QVQLVESGGGLVQAGGSLRLSCAASGIIFGHYAMGWYRQAPGKERELVARITYSGTRTYYADSVKGRFTISRDNAKNTVYLQMNSLKPEDTAVYYCAAGYAYPRWVTAGNYWGQGTQVTVSS”: the “polyreactivity (PSR sort gate)” value is “high polyreactivity”.
Take “QVQLVESGGGLVQAGGSLRLSCAASGIIFGRYAMGWYRQAPGKEREFVAAITWRVGTTYYADSVKGRFTISRDNAKNTVYLQMNSLKPEDTAVYYCAARSRTGRYDYWGQGTQVTVSS”: the “polyreactivity (PSR sort gate)” value is given as “high polyreactivity”.
Consider “QVQLVESGGGLVQAGGSLRLSCAASGIIFGRYAMGWYRQAPGKERELVAAINGSGGSTYYADSVKGRFTISRDNAKNTVYLQMNSLKPEDTAVYYCAVVYYGSIFVLEYDYWGQGTQVTVSS”, for which the “polyreactivity (PSR sort gate)” value was “high polyreactivity”.
Consider “QVQLVESGGGLVQAGGSLRLSCAASGIIFGRYAMGWYRQAPGKERELVAAISGSGGITYYADSVKGRFTISRDNAKNTVYLQMNSLKPEDTAVYYCATRKYLTYNYWGQGTQVTVSS”, for which the “polyreactivity (PSR sort gate)” value was “high polyreactivity”.
Regarding “QVQLVESGGGLVQAGGSLRLSCAASGIIFGRYAMGWYRQAPGKERELVAAITSGGSTSYADSVKGRFTISRDNAKNTVYLQMNSLKPEDTAVYYCAVVFVWGWPGYYWGQGTQVTVSS”, the “polyreactivity (PSR sort gate)” value was “high polyreactivity”.
As to “QVQLVESGGGLVQAGGSLRLSCAASGIIFGRYAMGWYRQAPGKERELVAVISRSGGSTYYADSVKGRFTISRDYAKNSVYLQMNSLKPEDTAVYYCAARYTPTYNAGLDYWGQGSQVTVSS”, the “polyreactivity (PSR sort gate)” value is “high polyreactivity”.
For “QVQLVESGGGLVQAGGSLRLSCAASGIIFGSYTMGWYIQAPGKERELVATISFSGGTTNYADSVKGRFTISRDNAKNTVYLQMNSLKPEDTAVYYCAARPAPATGKLDYWGQGTQVTVSS”, the “polyreactivity (PSR sort gate)” value is “low polyreactivity”.
With “QVQLVESGGGLVQAGGSLRLSCAASGIIFGTYAMGWYRQAPGKERELVASITNGGNTNYADSVKGRFTISRDNAKNTVYLQMNSLKPEDTAVYYCAKDVPYWRPVVRYDYWGQGTQVTVSS”, the “polyreactivity (PSR sort gate)” value is “low polyreactivity”.
In the case of “QVQLVESGGGLVQAGGSLRLSCAASGIIFGVNVMGWYRQAPGKERELVATITWRGDSTYYADSVKGRFTISRDNAKNTVYLQMNSLKPEDTAVYYCARGARTGVREDDYWGQGTQVTVSS”, the “polyreactivity (PSR sort gate)” value was “low polyreactivity”.
Next, “QVQLVESGGGLVQAGGSLRLSCAASGIIFGWNTMGWYRQAPGKEREFVAAISSSGGSTYADSVKGRFTISRDNAKNTVYLQMNSLKPEDTAVYYCAASKQPGSFEFDYWGQGTQVTVSS”: “high polyreactivity”.

Source of the values: the nanobody polyreactivity screen of Harvey et al. (2022).
